One may read the Vmax as the top rate of the reaction or transport when substrate is in excess. Broadly, the Km is the substrate concentration at which the rate is half of its maximum.

Like-named read-outs stand apart in the source and are kept apart here.

Data set [1] addresses T1, UGT1A1 (Homo sapiens, UniProt P22309).
T1 sequence (P22309 26-533): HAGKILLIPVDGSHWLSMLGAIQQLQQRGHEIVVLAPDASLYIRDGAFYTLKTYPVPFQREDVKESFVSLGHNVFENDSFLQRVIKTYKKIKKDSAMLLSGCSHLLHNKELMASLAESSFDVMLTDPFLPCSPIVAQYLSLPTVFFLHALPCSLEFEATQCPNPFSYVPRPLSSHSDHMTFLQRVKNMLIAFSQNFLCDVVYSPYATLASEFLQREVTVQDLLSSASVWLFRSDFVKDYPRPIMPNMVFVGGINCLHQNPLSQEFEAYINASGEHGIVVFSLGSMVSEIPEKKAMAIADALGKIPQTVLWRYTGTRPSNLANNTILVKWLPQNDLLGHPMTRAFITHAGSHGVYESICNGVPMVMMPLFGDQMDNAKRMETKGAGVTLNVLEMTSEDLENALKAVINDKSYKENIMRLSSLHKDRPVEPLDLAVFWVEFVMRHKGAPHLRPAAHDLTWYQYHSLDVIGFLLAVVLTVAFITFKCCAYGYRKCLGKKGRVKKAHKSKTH
Nature of the data set: UGT1A1 glucuronidation kinetics of flavonols. The data set is classed as in vitro ADME. Particulars: for Ks: substrate inhibition constant.

The next data set concerns the target T2, UGT1A3 (Homo sapiens, UniProt P35503).
T2 sequence (P35503 29-534): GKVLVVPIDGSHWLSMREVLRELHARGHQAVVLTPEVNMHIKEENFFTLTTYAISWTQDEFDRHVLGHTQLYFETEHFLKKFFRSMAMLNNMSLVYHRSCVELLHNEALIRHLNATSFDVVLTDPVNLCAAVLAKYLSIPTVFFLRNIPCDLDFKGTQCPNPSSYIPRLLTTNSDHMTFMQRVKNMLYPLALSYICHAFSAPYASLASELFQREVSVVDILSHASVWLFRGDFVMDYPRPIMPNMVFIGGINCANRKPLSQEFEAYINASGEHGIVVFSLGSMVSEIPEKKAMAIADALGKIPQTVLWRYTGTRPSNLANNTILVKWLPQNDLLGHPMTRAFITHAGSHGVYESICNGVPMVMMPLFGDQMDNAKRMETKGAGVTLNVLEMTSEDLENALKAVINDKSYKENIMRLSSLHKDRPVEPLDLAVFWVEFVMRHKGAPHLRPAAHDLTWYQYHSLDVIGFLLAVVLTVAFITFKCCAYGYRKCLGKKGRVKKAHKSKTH
Nature of the data set: UGT1A3 glucuronidation kinetics of flavonols. Particulars: substrate inhibition constant. The data set is classed as in vitro ADME.

For the next data set, the target named is T3, UGT1A7 (Homo sapiens, UniProt Q9HAW7).
T3 sequence (Q9HAW7 26-530): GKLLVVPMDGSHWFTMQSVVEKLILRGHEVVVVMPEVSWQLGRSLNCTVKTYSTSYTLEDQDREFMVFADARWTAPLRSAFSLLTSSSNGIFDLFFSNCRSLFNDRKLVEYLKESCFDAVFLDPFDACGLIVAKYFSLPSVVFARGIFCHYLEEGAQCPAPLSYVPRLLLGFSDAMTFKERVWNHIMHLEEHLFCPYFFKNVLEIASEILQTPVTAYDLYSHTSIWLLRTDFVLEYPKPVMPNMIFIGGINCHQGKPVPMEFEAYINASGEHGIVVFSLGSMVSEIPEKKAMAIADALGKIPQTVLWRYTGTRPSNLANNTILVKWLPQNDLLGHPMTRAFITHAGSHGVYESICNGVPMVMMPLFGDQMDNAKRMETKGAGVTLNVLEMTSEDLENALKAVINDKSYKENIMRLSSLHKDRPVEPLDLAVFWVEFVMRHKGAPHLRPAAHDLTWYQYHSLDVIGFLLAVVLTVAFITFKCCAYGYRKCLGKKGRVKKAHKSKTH
Briefly: UGT1A7 glucuronidation kinetics of flavonols. The data set is classed as in vitro ADME. The note with it: formation of 3-O-glucuronide, substrate inhibition constant.

The target in a further data set is T4, UGT1A9 (Homo sapiens, UniProt O60656).
T4 sequence (O60656 26-530): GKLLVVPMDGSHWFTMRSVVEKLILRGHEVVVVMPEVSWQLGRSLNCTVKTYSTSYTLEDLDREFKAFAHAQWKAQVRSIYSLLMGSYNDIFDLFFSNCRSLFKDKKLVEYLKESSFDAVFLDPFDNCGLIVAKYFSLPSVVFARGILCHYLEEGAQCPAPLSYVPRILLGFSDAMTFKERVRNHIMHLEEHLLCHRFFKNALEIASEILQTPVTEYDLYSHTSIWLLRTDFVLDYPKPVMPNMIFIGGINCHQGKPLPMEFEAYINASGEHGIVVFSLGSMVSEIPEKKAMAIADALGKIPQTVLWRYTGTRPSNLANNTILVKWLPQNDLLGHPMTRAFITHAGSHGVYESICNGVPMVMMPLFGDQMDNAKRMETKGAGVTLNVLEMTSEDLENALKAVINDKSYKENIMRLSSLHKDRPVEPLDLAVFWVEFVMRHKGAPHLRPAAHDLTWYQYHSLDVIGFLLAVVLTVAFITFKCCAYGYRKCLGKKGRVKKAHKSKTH
Nature of the data set: UGT1A9 glucuronidation kinetics of flavonols. The data set is classed as in vitro ADME.

In data set [2] the target is T1, UGT1A1. Particulars: cited from earlier work.
The target of the next data set is T5, UGT1A10 (Homo sapiens, UniProt Q9HAW8).
T5 sequence (Q9HAW8 26-530): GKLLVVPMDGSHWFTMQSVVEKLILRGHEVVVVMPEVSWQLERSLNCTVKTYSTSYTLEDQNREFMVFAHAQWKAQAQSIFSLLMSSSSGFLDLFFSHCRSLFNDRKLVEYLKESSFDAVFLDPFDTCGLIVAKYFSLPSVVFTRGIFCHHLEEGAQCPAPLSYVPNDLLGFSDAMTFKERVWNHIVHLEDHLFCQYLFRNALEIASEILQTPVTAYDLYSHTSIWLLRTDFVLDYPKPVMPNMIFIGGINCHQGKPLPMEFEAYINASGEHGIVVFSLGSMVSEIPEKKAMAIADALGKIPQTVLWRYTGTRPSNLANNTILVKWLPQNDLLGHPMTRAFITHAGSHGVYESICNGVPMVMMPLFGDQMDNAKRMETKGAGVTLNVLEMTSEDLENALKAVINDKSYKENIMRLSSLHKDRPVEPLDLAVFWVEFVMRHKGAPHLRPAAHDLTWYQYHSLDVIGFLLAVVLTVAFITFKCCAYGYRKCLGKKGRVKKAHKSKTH
Briefly: UGT1A10 glucuronidation kinetics of flavonols. It is filed as in vitro ADME. The note with it: substrate inhibition constant.

Substrate in data set [3]: O=c1c(O)c(-c2ccc(O)cc2)oc2cc(O)cc(O)c12
Briefly: UGT1A1 glucuronidation kinetics of flavonols. It is filed as in vitro ADME, human. The note with it: other: UGT1A1; formation of 7-O-glucuronide; pH 6.5.

Substrate in data set [4]: O=c1c(O)c(-c2ccc(O)cc2)oc2cc(O)ccc12
Nature of the data set: UGT1A1 glucuronidation kinetics of flavonols. The data set is classed as in vitro ADME, human. The note with it: other: UGT1A1, pH 6.5.

Substrate in data set [5]: O=c1c(O)c(-c2ccccc2)oc2cc(O)cc(O)c12
Nature of the data set: UGT1A1 glucuronidation kinetics of flavonols. It is filed as in vitro ADME, human. Particulars: other: UGT1A1, pH 6.5.

Substrate in data set [6]: O=c1c(O)c(-c2ccccc2)oc2cc(O)ccc12
Briefly: UGT1A1 glucuronidation kinetics of flavonols. The data set is classed as in vitro ADME, human. Particulars: other: UGT1A1, pH 6.5.

Substrate in data set [7]: O=c1c(O)c(-c2ccc(O)cc2)oc2cc(O)cc(O)c12
Nature of the data set: UGT1A3 glucuronidation kinetics of flavonols. It is filed as in vitro ADME, human. The note with it: other: UGT1A3; formation of 7-O-glucuronide; pH 6.5.

Substrate in data set [8]: O=c1c(O)c(-c2ccccc2)oc2cc(O)cc(O)c12
Nature of the data set: UGT1A3 glucuronidation kinetics of flavonols. Particulars: other: UGT1A3, pH 6.5. It is filed as in vitro ADME, human.

Substrate in data set [9]: O=c1c(O)c(-c2ccccc2)oc2cc(O)ccc12
Nature of the data set: UGT1A3 glucuronidation kinetics of flavonols. The note with it: other: UGT1A3, pH 6.5. It is filed as in vitro ADME, human.

As for `O=c1c(O)c(-c2ccccc2)oc2cc(O)ccc12` [3,7DHF, 3,7-dihydroxyflavone], the Ks/Km ratio at UGT1A1 [1] (3-O-glucuronidation) is recorded as 0.38; at UGT1A1 [1] (7-O-glucuronidation) it was 1.16. Moreover, the Vmax turned out to be 1.02 nmol/mg/min on UGT1A1 [1] (formation of 3-O-glucuronide), 3.04 nmol/mg/min at UGT1A1 [1] (formation of 7-O-glucuronide) and 2.04 nmol/mg/min at UGT1A9 (formation of 7-O-glucuronide). Further, the Ks is 0.60 ± 0.38 µM at UGT1A1 [1] (formation of 3-O-glucuronide); 1.21 ± 0.23 µM on UGT1A1 [1] (formation of 7-O-glucuronide); 100.05 ± 94.80 µM on UGT1A3 (formation of 3-O-glucuronide); 50.00 ± 80.17 µM on UGT1A3 (formation of 7-O-glucuronide); 309.17 ± 127.39 µM at UGT1A7; 30.13 ± 7.11 µM at UGT1A9 (formation of 3-O-glucuronide, substrate inhibition constant).
For the molecule `C#C[C@]1(O)CC[C@H]2[C@@H]3CCc4cc(O)ccc4[C@H]3CC[C@@]21C` [ethinylestradiol], the Km at UGT1A1 [2] (reported value) is 49.8 µM. For the same molecule, at UGT1A1 [2] (substrate inhibition at high concentrations of UDPGA), the Ks/Km ratio is listed as 1.61.
On to `O=c1c(O)c(-c2ccc(O)cc2)oc2cc(O)cc(O)c12` [3,5,7,4’QHF, 3,5,7,4’-tetrahydroxyflavone], for which the Ks at UGT1A1 [1] (formation of 7-O-glucuronide) came out at 2.81 ± 0.67 µM; on UGT1A3 (formation of 7-O-glucuronide) it was 7.52 ± 9.58 µM; at UGT1A10 (formation of 3-O-glucuronide), 30.01 ± 8.00 µM; on UGT1A10 (formation of 7-O-glucuronide), 51.37 ± 27.15 µM.

B1: UGT1A1 (Homo sapiens) (protein)
chain: T1 sequence (P22309 26-533)
With B1, the Km in data set [3] was 0.13 ± 0.03 µM; in [4] (formation of 3-O-glucuronide), 0.30 ± 0.05 µM; in data set [4] (formation of 7-O-glucuronide) it was 0.43 ± 0.10 µM; in data set [5] (formation of 3-O-glucuronide) it was 0.31 ± 0.10 µM; in data set [5] (formation of 7-O-glucuronide), 0.51 ± 0.08 µM; in data set [6] (formation of 3-O-glucuronide), 1.57 ± 1.09 µM. Also, the Km in data set [6] (formation of 7-O-glucuronide) is 1.04 ± 0.19 µM. In addition, the Vmax came out at 1.38 ± 0.14 nmol/mg/min in data set [3]; 0.68 ± 0.05 nmol/mg/min in [4] (formation of 3-O-glucuronide); 1.08 ± 0.13 nmol/mg/min in data set [4] (formation of 7-O-glucuronide); 0.82 ± 0.14 nmol/mg/min in data set [5] (formation of 3-O-glucuronide); 4.59 ± 0.46 nmol/mg/min in data set [5] (formation of 7-O-glucuronide); 1.02 ± 0.54 nmol/mg/min in data set [6] (formation of 3-O-glucuronide). Moreover, the Vmax in data set [6] (formation of 7-O-glucuronide) came out at 3.04 ± 0.42 nmol/mg/min. Also, the Vmax/Km was determined as 10620 µL/min/mg in [3]; 2270 µL/min/mg in data set [4] (formation of 3-O-glucuronide); 2520 µL/min/mg in data set [4] (formation of 7-O-glucuronide); 2650 µL/min/mg in [5] (formation of 3-O-glucuronide); 9000 µL/min/mg in [5] (formation of 7-O-glucuronide); 650 µL/min/mg in data set [6] (formation of 3-O-glucuronide). Besides, the Vmax/Km in [6] (formation of 7-O-glucuronide) stood at 2920 µL/min/mg.

B2: UGT1A3 (Homo sapiens) (protein)
chain: T2 sequence (P35503 29-534)
B2: the Km in data set [7] is 3.30 ± 3.10 µM; in data set [8] (formation of 3-O-glucuronide) it was 0.84 ± 0.18 µM; in data set [8] (formation of 7-O-glucuronide), 2.12 ± 1.24 µM; in [9] (formation of 3-O-glucuronide), 8.81 ± 2.72 µM; in data set [9] (formation of 7-O-glucuronide), 7.02 ± 3.76 µM. Moreover, the Vmax in data set [7] is 0.86 ± 0.35 nmol/mg/min; in data set [8] (formation of 3-O-glucuronide) it was 0.17 ± 0.01 nmol/mg/min; in data set [8] (formation of 7-O-glucuronide), 3.44 ± 0.84 nmol/mg/min; in [9] (formation of 3-O-glucuronide), 0.18 ± 0.02 nmol/mg/min; in [9] (formation of 7-O-glucuronide), 1.89 ± 0.36 nmol/mg/min. Besides, the Vmax/Km in data set [7] was found to be 260 µL/min/mg; in data set [8] (formation of 3-O-glucuronide) it was 200 µL/min/mg; in data set [8] (formation of 7-O-glucuronide) it was 1620 µL/min/mg; in data set [9] (formation of 3-O-glucuronide), 20 µL/min/mg; in data set [9] (formation of 7-O-glucuronide), 270 µL/min/mg.

The values are drawn from article PMC3426363 (Pharmaceutical research, 2011).
